These results are taken from publication PMC3817407.

Assay [1] has as its target T1, ECF17_1458.
T1 chain: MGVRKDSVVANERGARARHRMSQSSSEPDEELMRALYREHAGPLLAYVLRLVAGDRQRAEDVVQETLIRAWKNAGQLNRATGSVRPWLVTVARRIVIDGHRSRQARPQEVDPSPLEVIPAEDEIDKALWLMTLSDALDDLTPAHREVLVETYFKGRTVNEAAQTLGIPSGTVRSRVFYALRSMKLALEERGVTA

Assay [2] addresses T2, ECF14_1324.
T2 chain: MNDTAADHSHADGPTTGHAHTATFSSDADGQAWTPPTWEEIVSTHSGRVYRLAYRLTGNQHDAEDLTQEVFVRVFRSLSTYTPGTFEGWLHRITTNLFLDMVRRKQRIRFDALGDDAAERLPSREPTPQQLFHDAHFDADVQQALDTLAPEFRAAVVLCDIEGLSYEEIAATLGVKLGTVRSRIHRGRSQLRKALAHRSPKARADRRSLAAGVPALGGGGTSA

For assay [3], the target named is T3, ECF12_807.
T3 chain: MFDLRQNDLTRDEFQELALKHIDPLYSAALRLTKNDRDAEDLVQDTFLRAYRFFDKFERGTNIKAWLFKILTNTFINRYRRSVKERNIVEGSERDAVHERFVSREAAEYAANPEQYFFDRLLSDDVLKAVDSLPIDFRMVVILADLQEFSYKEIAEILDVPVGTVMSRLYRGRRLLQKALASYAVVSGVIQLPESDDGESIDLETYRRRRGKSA

Assay [4] deals with T4, ECF33_375.
T4 chain: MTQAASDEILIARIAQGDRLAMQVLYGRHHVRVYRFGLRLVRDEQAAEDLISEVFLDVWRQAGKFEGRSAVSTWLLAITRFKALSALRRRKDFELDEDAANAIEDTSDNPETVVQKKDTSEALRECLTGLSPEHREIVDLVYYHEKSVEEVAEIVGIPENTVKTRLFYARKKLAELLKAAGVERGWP

Assay [5] has as its target ECF27_1331.
Assay [6] has as its target T5, ECF31_34.
T5 chain: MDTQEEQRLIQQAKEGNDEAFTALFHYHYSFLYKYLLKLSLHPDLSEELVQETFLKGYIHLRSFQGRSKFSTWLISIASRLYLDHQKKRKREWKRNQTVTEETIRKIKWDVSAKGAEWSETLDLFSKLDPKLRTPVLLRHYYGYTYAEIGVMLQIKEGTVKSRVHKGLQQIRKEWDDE

Assay [7] concerns the target T6, ECF11_987.
T6 chain: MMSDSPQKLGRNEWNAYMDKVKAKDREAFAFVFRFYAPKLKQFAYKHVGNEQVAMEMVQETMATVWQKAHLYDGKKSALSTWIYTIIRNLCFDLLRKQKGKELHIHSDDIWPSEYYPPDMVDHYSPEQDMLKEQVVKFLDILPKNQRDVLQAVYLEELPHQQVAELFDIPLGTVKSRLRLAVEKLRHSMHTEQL

The target in assay [8] is T7, ECF16_973.
T7 chain: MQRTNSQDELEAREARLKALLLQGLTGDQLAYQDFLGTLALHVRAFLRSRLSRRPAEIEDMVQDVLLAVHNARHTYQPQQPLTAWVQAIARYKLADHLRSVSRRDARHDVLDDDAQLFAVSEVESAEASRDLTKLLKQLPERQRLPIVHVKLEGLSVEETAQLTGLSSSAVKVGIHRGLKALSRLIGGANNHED

The target of assay [9] is T8, ECF16_3622.
T8 chain: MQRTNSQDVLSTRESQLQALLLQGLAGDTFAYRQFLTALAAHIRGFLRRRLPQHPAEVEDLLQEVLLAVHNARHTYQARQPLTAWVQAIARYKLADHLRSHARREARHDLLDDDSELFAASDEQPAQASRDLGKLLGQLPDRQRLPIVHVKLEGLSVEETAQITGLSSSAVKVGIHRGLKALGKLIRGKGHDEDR

Assay [10] has as its target T9, ECF04_1609.
T9 chain: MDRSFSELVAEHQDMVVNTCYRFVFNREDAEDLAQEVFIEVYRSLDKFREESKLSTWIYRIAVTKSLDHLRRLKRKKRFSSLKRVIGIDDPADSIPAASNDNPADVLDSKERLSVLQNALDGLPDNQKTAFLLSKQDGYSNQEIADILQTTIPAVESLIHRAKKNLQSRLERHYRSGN

The target in assay [11] is T10, ECF22_4450.
T10 chain: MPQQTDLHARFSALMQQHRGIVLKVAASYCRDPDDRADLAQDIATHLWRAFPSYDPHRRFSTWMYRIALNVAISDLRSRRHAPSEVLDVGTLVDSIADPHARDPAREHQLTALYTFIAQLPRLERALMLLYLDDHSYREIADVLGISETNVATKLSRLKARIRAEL

For assay [12], the target named is T11, ECF27_4265.
T11 chain: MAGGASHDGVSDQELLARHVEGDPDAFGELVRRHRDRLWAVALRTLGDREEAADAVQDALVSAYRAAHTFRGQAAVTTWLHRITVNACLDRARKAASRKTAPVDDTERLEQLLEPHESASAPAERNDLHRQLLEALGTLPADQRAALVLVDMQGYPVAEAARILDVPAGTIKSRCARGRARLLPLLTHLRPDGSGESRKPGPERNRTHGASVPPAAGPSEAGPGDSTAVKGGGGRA

For assay [13], the target named is T12, ECF11_3726.
T12 chain: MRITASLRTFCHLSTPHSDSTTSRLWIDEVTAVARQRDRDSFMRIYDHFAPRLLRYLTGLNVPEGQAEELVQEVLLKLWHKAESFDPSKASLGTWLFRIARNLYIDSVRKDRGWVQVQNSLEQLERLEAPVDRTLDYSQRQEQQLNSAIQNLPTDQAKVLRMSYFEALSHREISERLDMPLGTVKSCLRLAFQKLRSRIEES

The target of assay [14] is T13, ECF17_1691.
T13 chain: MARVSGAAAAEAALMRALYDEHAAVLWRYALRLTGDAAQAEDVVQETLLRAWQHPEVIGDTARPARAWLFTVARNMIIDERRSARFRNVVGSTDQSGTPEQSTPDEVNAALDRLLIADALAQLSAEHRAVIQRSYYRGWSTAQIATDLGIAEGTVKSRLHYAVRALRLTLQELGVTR

Assay [15] concerns the target T14, ECF34_1384.
T14 chain: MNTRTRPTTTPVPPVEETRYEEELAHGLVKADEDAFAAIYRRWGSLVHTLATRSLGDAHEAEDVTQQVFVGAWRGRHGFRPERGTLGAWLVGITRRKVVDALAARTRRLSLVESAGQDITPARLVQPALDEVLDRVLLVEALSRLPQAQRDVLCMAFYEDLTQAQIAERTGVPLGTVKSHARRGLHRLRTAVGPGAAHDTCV

B1: AS37_2513 (protein)
chain: MSSAPATKEEVDFALKVRRALDERAASLPDATTDRLAAARRAALARKKPDAAIVLVPALAGSAGTLELRPPGEPRKSLARRLARAWPLALLLAGLIGIAYWEDMQRTAELADIDAAMLSDNLPLTAYLDHGFNAYLSHTH
For the molecule B1, the fold repression turned out to be 5.87 in assay [1]; 13.8 in assay [2]; 9.33 in assay [3]; 2.48 in assay [4]; 6.45 in assay [5]; 3.08 in [6]. In addition, the fold repression in assay [7] came out at 9.25; in assay [8], 3.54; in assay [9] it was 5.36; in assay [10], 4.3; in assay [11] it was 7.22; in assay [12], 2.71. Besides, the fold repression turned out to be 11.6 in assay [13], 4.17 in assay [14] and 6.47 in assay [15].

B2: AS38_1322 (protein)
chain: MSDGNDARPDARDGHDPGSDARDGHDPGSHARDGHDPGAGPFDGHGPGSDAGDGDDAGPDARDGHGAPAGPAGREQRKHPHDTHDMHDTHDTHAGKGTVNHGPAAQGPDAPGADGPATDEAALRAMMQRAVREMEPSDGTLEHLRRAVPARRARKRQALVGAAAAALFLGTAVPALVHVSNATGAGADPSVAGNASQAQGGASQGKDPAGGQSGVAGTGDTPEDRDKADPKETPGGKEPGAATGAPPSGVPSASSPADVPACAPGSLGPAVASSAEPDSTGVVYGSFRVTNVSSDGCTVTGPGTVVTASLGAAEATRIGTARHAAGDAAAGLPDPSLETASLALAPGAAYEVQFAWVPSETCPTTGGTTGGGSGGPSPDPSPTADTTAAGGTSAGGGEAGPTTQLITEDGPAEGSVSVTYTPEGGSGSATATVSNACAGTVYWTGLLADSGSGA
As for B2, the fold repression came out at 4.75 in assay [1]; 8.93 in [2]; 5.77 in assay [3]; 3.13 in assay [4]; 5.61 in assay [5]; 4.78 in [6]. Moreover, the fold repression in [7] was 10.4; in assay [8] it was 4.09; in assay [9], 4.56; in assay [10], 4.63; in assay [11], 6.3; in assay [12] it was 2.33. The fold repression turned out to be 11.2 in assay [13], 2.81 in [14] and 6.19 in assay [15].

B3: AS33_423 (protein)
chain: MMAMSNTMPDPREPGDVEALLPWYAAGTLNARDARRVADALDRDPALARQYAVILEEYASTIELNESLGAPSSRAMQKLFAAIDAEPARAPGAGQGLGARFAGFFAGLSPKALAWSASVAGLALLLQAGLIGALLTWPHAAPVQTAAYQPQREVARAPASSPAPATVSPPAAAMADRAADAGKSTPPMVMAERSGGPVVRSLAPQSGPRVLVKFAPEARASEIAALLDQYNAVVVDSSRGGLFRLQFGTQSLSKQDQETLIGRLQKEPVVSVVLSAP
In the case of B3, the fold repression amounted to 8.41 in assay [1]; 36 in assay [2]; 6.47 in assay [3]; 114 in assay [4]; 8.68 in assay [5]; 8.35 in assay [6]. In addition, the fold repression in assay [7] worked out at 13.7; in [8], 14.6; in assay [9], 35.1; in assay [10], 6.18; in [11], 23.1; in [12] it was 5.38. In addition, the fold repression in assay [13] amounted to 29.3; in assay [14], 3.16; in [15] it was 8.97.

B4: AS33_375 (protein)
chain: MMALSKKMLEQEPSEIELLLPWHAAGTLNARDARRVEDALARDPELAKQYAAIRGEYEETIHLNESLGAPSARAMQKLFGAIDAEPARETGSLPLSARIATFFASLSPRTLAWSASLGAVALVLQAGIIGAVLMKTQPTTFQTASLSTSAPITRELGAAVAPARALVRFTPEARVADITALLDSYQASIIGDAKGGMFRLQFDKAMSQDELASLLGRMQREKFVNLAVAAP
B4: the fold repression in assay [1] is 11.3; in assay [2] it was 44.6; in assay [3] it was 7.97; in assay [4], 152; in assay [5], 11.4; in assay [6], 9.28. In addition, the fold repression came to 17.1 in [7]; 9.87 in assay [8]; 22.6 in [9]; 11.1 in assay [10]; 31 in [11]; 5.34 in assay [12]. In addition, the fold repression is 34.4 in [13], 3.94 in assay [14] and 12.2 in [15].

B5: AS35_3582 (protein)
chain: MNPQKHSASVAEEQMLAHFRAHAPQQPAPALDQAILAAARRQAAHVEPARSWWRRWLEASRRPRWQAAFASLLGVALVLGLVSHNVLDDAERQARPEVAFSDVPLRDGVAGAAAAKRAMRAPAAPAPLSGEMSEPPALLASYASSGEAPQLMAEAAPPAPAALADRPPAQAAQQAKVQAALAGDFVAQARGKAVAVKPEVLDEALGAVLALREQGKTEQAATQLAELQKRFPGENLVERLERLATIAASARKRP
On to B5, for which the fold repression was determined as 7.06 in assay [1]; 13.1 in [2]; 10.1 in assay [3]; 2.9 in [4]; 7.23 in assay [5]; 5.2 in [6]. The fold repression came out at 9.63 in [7]; 3.39 in assay [8]; 6.44 in assay [9]; 6.84 in assay [10]; 8.03 in assay [11]; 2.28 in assay [12]. Besides, the fold repression stood at 18.8 in assay [13], 4.63 in assay [14] and 9.31 in [15].
